{"source": "patent US6727407", "proteins": {"B1": {"name": "CKA1 (α-subunit of Arabidopsis protein kinase CK2) (protein)", "chain": "MSKARVYTEVNVIRPKDYWDYESLIVQWGEQDDYEVVRKVGRGKYSEVFEGINVNSKEKCIIKILKPVKKKKIRREIKILQNLCGGPNIVKLLDVVRDQHSKTPSLIFEYVNSTDFKVLYPTLTDYDIRYYIYELLKALDFCHSQGIMHRDVKPHNVMIDHELRKLRLIDWGLAEFYHPGKEYNVRVASRYFKGPELLVDLQDYDYSLDMWSLGCMFAGMIFRKEPFFYGHDNQDQLVKIAKVLGTDELNAYLNKYQLELDPQLEALVGRHSRKPWSKFINADNQHLVSPEAIDFLDKLLRYDHQDRLTAKEAMAHAYFAQVRAAETSRMRSQ"}}, "key": {"GST-LHY, Q6R0H1": {"biological_target": "T1, GST-LHY, Q6R0H1", "T1 chain": "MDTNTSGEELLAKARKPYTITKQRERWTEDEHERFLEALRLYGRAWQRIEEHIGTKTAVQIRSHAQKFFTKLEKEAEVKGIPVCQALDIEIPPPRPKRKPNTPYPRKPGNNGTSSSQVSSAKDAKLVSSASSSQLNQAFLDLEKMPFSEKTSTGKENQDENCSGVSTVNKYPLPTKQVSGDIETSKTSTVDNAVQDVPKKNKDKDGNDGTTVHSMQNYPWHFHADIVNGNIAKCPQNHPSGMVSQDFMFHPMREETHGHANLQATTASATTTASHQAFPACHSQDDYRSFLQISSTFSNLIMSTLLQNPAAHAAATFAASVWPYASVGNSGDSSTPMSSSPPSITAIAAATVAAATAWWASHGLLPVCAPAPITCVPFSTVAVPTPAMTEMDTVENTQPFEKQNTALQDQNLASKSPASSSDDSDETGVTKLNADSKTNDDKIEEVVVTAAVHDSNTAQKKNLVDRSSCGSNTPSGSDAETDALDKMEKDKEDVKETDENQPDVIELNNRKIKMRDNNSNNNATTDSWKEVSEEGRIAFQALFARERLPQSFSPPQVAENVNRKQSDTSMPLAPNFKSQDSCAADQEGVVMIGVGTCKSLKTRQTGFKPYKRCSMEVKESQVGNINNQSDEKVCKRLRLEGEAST"}, "His-tagged CKB3": {"biological_target": "T2, His-tagged CKB3", "T2 chain": "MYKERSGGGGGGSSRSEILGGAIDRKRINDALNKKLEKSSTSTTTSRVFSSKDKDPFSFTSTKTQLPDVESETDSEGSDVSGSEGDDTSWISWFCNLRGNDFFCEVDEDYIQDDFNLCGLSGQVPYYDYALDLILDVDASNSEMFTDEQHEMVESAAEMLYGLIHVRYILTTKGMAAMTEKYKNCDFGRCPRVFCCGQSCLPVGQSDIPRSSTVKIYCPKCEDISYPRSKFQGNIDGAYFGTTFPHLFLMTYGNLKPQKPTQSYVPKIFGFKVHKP"}, "[1]": {"biological_target": "glutathione-S-transferase (GST) [GST: P08515]", "sequence (P08515 whole entry)": "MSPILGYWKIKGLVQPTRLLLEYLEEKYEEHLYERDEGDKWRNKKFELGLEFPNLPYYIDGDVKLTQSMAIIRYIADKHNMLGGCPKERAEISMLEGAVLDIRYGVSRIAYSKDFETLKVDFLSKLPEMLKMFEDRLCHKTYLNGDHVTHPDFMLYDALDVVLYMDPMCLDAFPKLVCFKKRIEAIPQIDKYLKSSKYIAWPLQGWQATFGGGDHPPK"}, "His-tagged CKB1, P40228": {"biological_target": "T3, His-tagged CKB1, P40228", "T3 chain": "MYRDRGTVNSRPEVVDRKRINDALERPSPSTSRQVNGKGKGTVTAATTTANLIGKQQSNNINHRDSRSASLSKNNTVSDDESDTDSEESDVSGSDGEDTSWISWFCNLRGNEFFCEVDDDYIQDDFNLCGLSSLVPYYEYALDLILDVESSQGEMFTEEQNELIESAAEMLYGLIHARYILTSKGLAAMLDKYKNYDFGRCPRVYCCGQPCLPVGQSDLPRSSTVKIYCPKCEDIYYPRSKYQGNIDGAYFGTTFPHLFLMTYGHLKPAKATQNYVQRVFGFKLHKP"}}}
{"protein": "B1", "values": [{"measurement": "in vitro phosphorylation with [γ-32P]ATP, SDS-PAGE autoradiography", "setting": "GST-LHY, Q6R0H1", "value": "CKA1, the α-subunit of CK2, could phosphorylate LHY"}, {"measurement": "in vitro phosphorylation with [γ-32P]ATP, SDS-PAGE autoradiography", "setting": "GST-CCA1, P92973", "value": "a large amount of CKA1 (280 ng) phosphorylates GST-CCA1 but not GST"}, {"measurement": "phosphorylation of GST-CCA1 by 14 ng of CKA1 with 35 ng of β-subunit", "setting": "His-tagged CKB3", "value": "a strong stimulation of the CCA1 phosphorylation was observed by adding either CKB1 or CKB3"}, {"measurement": "phosphorylation of GST-LHY by CKA1 with added β-subunit", "setting": "His-tagged CKB3", "value": "this phosphorylation was enhanced by adding either CKB1 or CKB3"}, {"measurement": "in vitro phosphorylation with [γ-32P]ATP, SDS-PAGE autoradiography", "setting": "[1]", "value": "a large amount of CKA1 (280 ng) phosphorylates GST-CCA1 but not GST"}, {"measurement": "phosphorylation of GST-CCA1 by 14 ng of CKA1 with 35 ng of β-subunit", "setting": "His-tagged CKB1, P40228", "value": "a strong stimulation of the CCA1 phosphorylation was observed by adding either CKB1 or CKB3"}, {"measurement": "phosphorylation of GST-LHY by CKA1 with added β-subunit", "setting": "His-tagged CKB1, P40228", "value": "this phosphorylation was enhanced by adding either CKB1 or CKB3"}]}
